Consider 1 molecule from paper doi:10.1101/2023.11.19.566349.

What all share (assay): EMSA
Data set [1] has as its target T1, Tric1 SAM Asp235Ala (Arabidopsis thaliana, UniProt Q9SCK3 191-261, D235A).
T1 sequence: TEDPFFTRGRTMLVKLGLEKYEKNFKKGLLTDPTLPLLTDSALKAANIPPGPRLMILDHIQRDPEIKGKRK

For data set [2], the target named is T2, Tric1 SAM Asp235Ala:Gly241Glu (Arabidopsis thaliana, UniProt Q9SCK3 191-261, D235A;G241E).
T2 sequence: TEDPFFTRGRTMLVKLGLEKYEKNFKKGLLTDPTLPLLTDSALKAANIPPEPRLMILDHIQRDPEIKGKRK

In data set [3] the target is T3, Tric1 SAM domain WT (Arabidopsis thaliana, UniProt Q9SCK3 191-261).
T3 sequence: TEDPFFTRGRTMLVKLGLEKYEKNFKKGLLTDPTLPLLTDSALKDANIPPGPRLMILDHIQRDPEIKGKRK

For data set [4], the target named is T4, Tric1 SAM Gly241Glu (Arabidopsis thaliana, UniProt Q9SCK3 191-261, G241E).
T4 sequence: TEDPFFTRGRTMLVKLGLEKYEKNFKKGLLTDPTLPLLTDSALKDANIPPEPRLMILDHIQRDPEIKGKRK

UCGCUUUGCAUGCGA (structured_RNA) [tRNAala T-arm]: the binding result in data set [1] is “no binding”; in data set [2], “no binding”; in data set [3], “binds”; in data set [4] it was “no binding”.
